Numbering of substitutions follows the chain as printed. In names and notes the source's numbering stands.
B1: human Izumo1 ectodomain E71A (Izumo1E71A-His10-SpyTag-LPETGG) (domain or fragment)
chain: CVICDPSVVLALKSLEKDYLPGHLDAKHHKAMMERVENAVKDFQELSLNADAYMGVVDEATLQKGSWSLLKDLKRITDSDVKGDLFVKELFWMLHLQKETFATYVARFQKEAYCPNKCGVMLQTLIWCKNCKKEVHACRKSYDCGERNVEVPQMEDMILDCELNWHQASEGLTDYSFYRVWGNNTETLVSKGKEATLTKPMVGPEDAGSYRCELGSVNSSPATIINFHVTVLP
modifications: glycosylated (sites not given); SpyTag joined by an isopeptide bond to a SpyCatcher polyprotein
B2: human Izumo1 ectodomain H157A (Izumo1H157A-His10-SpyTag-LPETGG) (domain or fragment)
chain: B1 chain with A50E, H136A
modifications: glycosylated (sites not given); SpyTag joined by an isopeptide bond to a SpyCatcher polyprotein
B3: human Izumo1 ectodomain R160A (Izumo1R160A-His10-SpyTag-LPETGG) (domain or fragment)
chain: B1 chain with A50E, R139A
modifications: glycosylated (sites not given); SpyTag joined by an isopeptide bond to a SpyCatcher polyprotein

molecular target: human Juno ectodomain, wild type (Juno-His10-SpyTag-LPETGG) (human, glycosylated (sites not given); SpyTag joined by an isopeptide bond to a SpyCatcher polyprotein); assay: FACS
Sequence (chain, as listed by the source): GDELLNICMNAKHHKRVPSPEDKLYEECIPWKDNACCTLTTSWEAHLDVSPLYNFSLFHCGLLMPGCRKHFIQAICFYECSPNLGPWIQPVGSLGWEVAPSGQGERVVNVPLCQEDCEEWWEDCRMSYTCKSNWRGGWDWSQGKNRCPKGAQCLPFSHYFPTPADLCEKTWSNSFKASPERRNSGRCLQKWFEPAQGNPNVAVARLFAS

Row | Kd | Binder
1 | 43 nM | B1
2 | 243 nM | B2
3 | 157 nM | B3

Source: paper PMC12381214 (2025)
